# Measured values: the nanobody polyreactivity screen of Harvey et al. (2022)
# Assay: yeast display, Sf9 membrane polyspecificity reagent, FACS + sequencing; frameworks hold sequencing errors
# Outline: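 Using colony PCR, genes from sorted yeast display clones were amplified, then sequenced on MiSeq at 2 × 250 and filtered by CDR length. The clones had been stained with 10% biotinylated, detergent-solubilized Sf9 membrane reagent for 1 hour at 4 °C and sorted by FACS into low and high (top ~1%) gates on anti-HA and streptavidin fluorescence. Polyreactivity labels come from the gate of origin.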
row,Sequence,polyreactivity (PSR sort gate)
1,QLQLVESGGGLVQAGGSLRLSCAASGFIFSWYAMGWYRQAPGKERELVAAISWSGGSTYYADSVKGRITISRDNANNSVYLQMNSLKPEDTAVYYCADDRGWAKEYYWVQGTQVTVSS,high polyreactivity
2,QLQLVESGGGLVQAGGSLRLSCAASGFTFQYYAMGWYRQAPCKERELVAVISRSGGRTYYADSVKGRFTISRDNAKYTVYLQMYSLKPEDTAVYYCAALSQPGQRDDNQYDYWGQGTQVTVSS,high polyreactivity
3,QLQLVESGGGLVQAGGSLRLSCAASGFTFRYYAMGWYRQAPGKERELVAAITRSGTTSYADSVKGRFTISRDNAKNTVYLQMNSLKPEDTAVYYCNTRVTGNRLGYYYWGQGTQVTVSS,high polyreactivity
4,QLQLVESGGGLVQAGGSLRLSCAASGFTFVSNAMGWYRQAPGKERELVAVISSGGSTTYADSVKGRFSISPDNAKNTVYLQMNSLKPEDTAGYYCATTNSQDSYEGGDYWGQGTQVTVSS,low polyreactivity
5,QLQLVESGGGLVQAGGSLRLSCAASGFTSDVYAKVSYRQAPGKERELVAEISARGGSTYYADSVKGRFTISRDNAKNTVYLQMNSLKPEDTAVYYCAAEVYVGTIGFYADFFYYPVYYWGQGTQVTVSS,low polyreactivity
6,QLQLVESGGGLVQAGGSLRLSCAASGIIFYWNAMGWYRQAPGKEREFVASISGSGGSTYADSVKGRFTISRDNAKNTVYLQMNSLKPEDTAVYYCAADFSNVGVQHDYYWGQGTQVTVSS,high polyreactivity
7,QLQLVESGGGLVQAGGSLRLSCAASGNIFNYNAMGWYRQAPGKERELVAAISFSGGSTYYADSVKGRFTISRDNAQNTVYLQMNSLKPEDTAVYYCAKAERNYFEDWGQGTQVTVSS,high polyreactivity
8,QLQLVESGGGLVQAGGSLRLSCAASGNTFFPYTMGWYRQAPGKERELVAAITWSGVSTYYADSVKGRFTISRDNAKYTVDLQMNSLKPEDTAVYYCAAPSTGTYGSDYWGQGTQVTVSS,high polyreactivity
9,QLQLVESGGGLVQAGGSLRLSCAASGRIFKFNAMGWYRQATGKERELVARITWRGGSPYYADSVKGRFTISRDNAKNTVYLQLNSLKPEDTAVYDCATYTPWTRFYSGTEVGYWGQGTQVTVSS,high polyreactivity
10,QLQLVESGGGLVQAGGSLRLSCAASGRIFRGYAMGWYRQAPGKERELVAAISGSGGSTYYADSVKGRFTISRDNAKNSVYLQMNSLKPEDTAVYYCAAEGRNYYGSYDYWGQGTQVTVSS,low polyreactivity
11,QLQLVESGGGLVQAGGSLRLSCAASGRTFSTYAMGWYRQAPGKEIELVAAISSGGGRTYYADSVKGRFTISRDNAKNTVYLQMNSLKQEDTAVYYCAADRYFRSRRSYEYWGQGTQVTVSS,low polyreactivity
12,QLQLVESGGGLVQAGGSLRLSCAASGRTFSYNTMGWYRHAPGKERELVAAISWSGGSTYYADSVKGRFTISRDNAKNTVYLQMNSLKPEDSAVYYCNARSSGKGRSNAYYKGHGYWGQGTQVTVSS,high polyreactivity
13,QLQLVESGGGLVQAGGSLRLSCAASGSIFASNAMGWYRQAPGKERELVAAISSGGSRTYYADSVKGRFTISRDNAKNSVYLQMNSLKPEDTAVYYCNTVWFYGAKYDYWGQGTQVTVSS,high polyreactivity
14,QLQLVESGGGLVQAGGSLRLSCAASGSIFDVYTMGWYRQAPGKERELVAAINTCGGSTYYADSVKGRFTISRDNAKNTVYLQMNSLKPEDTAVYYCAASVYHYGPLYYWGQGTQVTVSS,low polyreactivity
15,QLQLVESGGGLVQAGGSLRLSCAASGSIFTWYAMGWYRQAPGKERELVAAITRGGSTYADSVKGRFTISRDNAKNTVNLQMNSLKPEDTAVYYCNAVYGVYDFNYWGQGTQVTGSS,low polyreactivity
16,QLQLVESGGGLVQAGGSLRLSCAASGSNISYYAMGWSRQAPGKERELVAAISKRGASTYYADSVKGRFTISRDKAKNTVFLQMNSLKPEDTAVYYCAAYRQGSAYDYWGQGTQVTVSS,high polyreactivity
17,QLQLVESGGGLVQAGGSLRLSCAASGSTASINAMGWYRQAPGKERELVADISTNGDSTSYADSVKGRFTISRDNAKNTVYLQMNSLKPEDTAVYYCNAVPHIYAEGTAYKYWGQGTQETVSS,low polyreactivity
18,QLQLVESGGGLVQAGGSLRLSCAASGSTFDVNAMGWYRQAPGKERELVAAISYSGGSTYYADSVKGRFTISRDNAKNTVYLQMNSLTPEDTAVYYCNAVFSRYSRLELGYWGQGTQVTVSS,high polyreactivity
19,QLQLVESGGGLVQAGGSLRLSCAASGSTFGPYAMGWYRQAPGKDRELVASITRSGGDTYYADSVKGRFTISRDNAKNSVYLQMNSLKPEDTAVYYCNKASHANEFGYWGQGTQVTVSS,high polyreactivity
20,QLQLVESGGGLVQAGGSLRLSCAASGSTFPWYTMGWYRQAPGKERELVAAITWNGVSTYYADSVKWRITISRDNAKNTVYFQMNSLKPEDTAVYYCATRIKRIGGFPYYYWGQGTQVTVSS,high polyreactivity

row,Sequence,polyreactivity (PSR sort gate)
1,QLQLVESGGGLVQAGGSLRLSCAASGSTLSDNAMGWYRQAPAKERELVASISWSGGTYYADSVKGRFTISRDNANNTVYLQMNSLKPEDTAVYYCAAYIYYNYSRQYWYDYWGQGTQVTVSS,low polyreactivity
2,QLQLVESGGGLVQAGGSLRLSCAASGSTLYWNAMGWYRQAPGKERELVAGISIGGRTNYADSVKGRFTISRDNAKNTVYLQMNSLKPEDTAVYYCNAENTYLGSRYRPYNYWGQGTQVTVSS,low polyreactivity
3,QLQLVESGGGLVQAGGSLRLSCAASGSTVAYNDMGWYRQAPGKERELVADIRSGGNTNYADSVKGRFTISRDNAKNTVYLQMNSLKTEDTAVYYCATDGYRIDVYHPDYRYDYWGQGTQVTVSS,low polyreactivity
4,QLQLVESGGGLVQAGGSLRLSCAASGYIFFKYAMGWYRQAPWKERELVASITSRGGTTYYADSVKGRFTISRDNAKNTVYLQMNSLKPEDTAVYYCAALRRSSFGYWGQGTQVTVSS,high polyreactivity
5,QLQLVESGGGLVQAGGSLRLSCAASGYIFGWYAMGWYRQAPGKERELVATIDWSGDSTYYADSVKGRFTISRDNAKNTVYLQLNSLKPEATAVYYCAVGYSYYPSDEFDYWGQGTQVTVSS,low polyreactivity
6,QLQLVESGGGLVQAGGSLRLSCAASGYTFRFNAMGWYRQAPGKEREFVAAIDFGGAGTYYADSVKGRFTISRDNAKNTVYLQMNSLKPEDTAVYYCAADGQWYYAPFRGGDYENDYWGQGTQVTVSS,low polyreactivity
7,QLQLVESGGGLVQAGGSLRLSCAASGYTIIQYAMGWYRQAPGKERELVAGITWSGGSTYADSVKGRFSISRDNAKNTVYLQMNSLKPEDTAVYYCAADDRDIYQYGTPYGSGIRYDYWGQGTQVTVSS,low polyreactivity
8,QLQLVESGGGLVQAGGSLRLSCAASRRIFDRNAMGWYRQAPGKERELVARIDPGDDTNYADSVKGRFTISRDNAKNTVSLQMNSLKPEDSAVYYCATDPDYVLYRTAYYEYDYWGLGTQVTVSS,low polyreactivity
9,QLQLVESGGGLVQAGGSLRLSSAASGFTFSIYAMGCYRQAPGKERELVAAINFGGGGTYYADSVKGRFTSSRDIAKNTVYLQMNSLKAEVTAVYDCAADYCYDYYSTEYDYWGQGTQVTVSS,low polyreactivity
10,QLQLVESGGGLVQAGGSLRLSSAASGSIFYEYTMGWYRQAPGKEREVVAVITSGGTTNYADSVKGRFTISRDNANNTDYLQMNSLKPEDTAFYYCNAVYRTSFQRGGGYWGQGTQVTVSS,high polyreactivity
11,QLQLVESGGVLVQAGGSLRLSCAASGRTFSEYLQGCYRPPPGKERELVAASTRGGGGTYYADSVKGRFTISRDNAKNTVYFQMNSLKPEDTAVYYCAAGRRGSAGYYRQFGYGYWGQGTQVTVSS,high polyreactivity
12,QLQLVESGRGLVQAGGSLRLSCAASGRTFYGYDMGWYRPAPGKERELVATISSGGSTNYADSVKGRFTISRDNAKNTVYLQMNSLKPEDTAVYYCNADSYEYPSPYRYYYLGYDYWGQGTQVTVSS,low polyreactivity
13,QLQLVESRPGLVPAGGSLRLSCAPSGSTFSYYAMGRYRQAPGKERELDAAISKSGGSTYYADSVKGRFTISRDNAINTVFLQMNSLKPYDTAFYYCSTRSRDPYSVSYRLDYWGQGTQVTVSS,low polyreactivity
14,QLQLVESVGGLVQAGGSLRLSCASSGLIFYVSAMGSYRQAPGKERELVAAITSSGASTYYADSVKGRFTISRDNAKNTVYLQMNSLKPEDTAVYYCAGRYAGGRRAYGYWGQGTQVSVSS,high polyreactivity
15,QLQLVESVGGVVQPGGSLRLSSAASGSNFRYYAIGWYRQAPGKERELVAAINWSGGSTYYADSVKGRVTISRDNAKNTVYLQMNSLKPEDTAVYYWAASWYYCRRYDYWGQGTQVTVSS,high polyreactivity
16,QQLQESGGGLVQAGGSLRLSCAASGSISGSVLMGWYRQAPGKEREFVASISLGGNTNYADSVKGRFTISRENAKNTVYLQMNCLKPEVAAVYYCAAYISLFETHPYWGQGTQVTVSS,high polyreactivity
17,QVELVESCGGLVQAGGSLRLSCAASGSTFTRNGMGWYSLAPGKEREMVAAISSGGSTNYADSVKGRFTISRDNAKNTVDFQKNSLQPEDTAVYYCAVDYRHSSSWNAGPWQMYYWGQGTQVTVSS,low polyreactivity
18,QVELVESGGGLVLAGGSLRLSCADSGRTFSYYAMGWYRQAPGKERELVAVITSSGGSTSYADSVKGRFTISRDNAKNTVYLQMNSLKPEDTAVYDCAADPLAVYWAYYLIGVYYWGQGTQVTVSS,high polyreactivity
19,QVELVESGGGLVQAGGSLRLSCAASGFTFRYYAMGWYRQAPGKERELVAAINASGGRTYYADSVKGRFTISRDNAKNTVYLQMNSLKPEDTAVYYCAARSIRQHYGMDYWGQGTQVTVSS,high polyreactivity
20,QVELVESGGGLVQAGGSRRLSCAASGSTFYAYAMGWYRQAPGKERELVAAISASGDSTYYADFVKGRFTISRDNAKNTVYLQMNSLTPEDTAVYYCAAEVYYRPQDYYTYPDYYWGQGTQVTVSS,high polyreactivity
